Test results: patent US20190284280A1 (ANAPTYSBIO, published 2019)

Experiments:
[1] = biological target: T1, native human TIM-3 stably transfected in CHO-K1 cells (human, UniProt Q8TDQ0 22-301); test: flow cytometry on human TIM-3 expressing CHO-K1 cells, PE anti-human IgG4 detection
T1 construct: whole, on cells; also called cell-surface human TIM-3; human TIM-3 expressing CHO-K1 cells
T1 sequence (looked up): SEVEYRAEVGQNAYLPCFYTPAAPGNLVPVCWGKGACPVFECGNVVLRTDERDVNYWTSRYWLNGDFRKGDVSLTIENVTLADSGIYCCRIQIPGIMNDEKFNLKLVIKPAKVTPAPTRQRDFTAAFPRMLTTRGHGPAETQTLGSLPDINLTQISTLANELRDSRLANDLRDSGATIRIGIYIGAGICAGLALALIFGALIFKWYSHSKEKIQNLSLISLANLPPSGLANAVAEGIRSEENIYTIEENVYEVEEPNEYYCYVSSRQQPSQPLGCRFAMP
Protocol: (§1) Flow cytometry studies were performed with CHO-K1 cell line clones in which native human or cynomolgus monkey TIM-3 was stably transfected. An exemplary anti-TIM-3 antibody (having heavy and light chains as set forth in SEQ ID NOs: 1 & 2, respectively) was diluted in 3-fold dilutions. Dilutions of exemplary antibody were added to human or cynomolgus monkey TIM-3 expressing CHO-K1 cells (1E5 cells) and incubated on ice. Cells were washed twice and incubated on ice with PE-conjugated goat anti-human IgG4 to detect antibody binding. Cells were washed and resuspended in the presence of propidium iodide to exclude dead cells and fixed before fluorescence was analyzed on a BD FACSArray (BD Biosciences). Data were analyzed for median fluorescence intensity, graphed, and curves fitted for EC₅₀ value calculation in GraphPad Prism (GraphPad Software, Inc.) using a non-linear (sigmoidal) regression analysis.

[2] = biological target: T2, Dimeric soluble human TIM-3 mIgG2a Fc (human; mouse, UniProt Q8TDQ0 22-200); test: SPR Biacore T200; TIM-3 fusion captured on anti-mouse IgG Fc, antibody flowed over; 1:1 model
T2 construct: Captured on an anti-mouse IgG (Fc-specific) Biacore CM5 surface; also called soluble TIM-3 fusion; not shown: mouse IgG2a Fc
T2 sequence (looked up): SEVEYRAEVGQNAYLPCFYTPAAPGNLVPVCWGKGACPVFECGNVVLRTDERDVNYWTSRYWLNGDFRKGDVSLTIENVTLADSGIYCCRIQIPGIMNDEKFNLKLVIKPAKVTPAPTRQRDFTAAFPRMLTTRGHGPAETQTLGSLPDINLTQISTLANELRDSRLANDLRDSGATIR
Protocol: SPR analyses were carried out using a Biacore T200, and kinetic constants were determined using Biacore T200 Evaluation software. […] GE anti-mouse IgG (Fc-specific) was immobilized on a Biacore CM5 chip using EDC-activated amine coupling chemistry. Dimeric soluble human TIM-3 mIgG2a Fc was then captured onto this surface to a target capture level of ˜70 RU or less. Next an exemplary anti-TIM-3 antibody (having heavy and light chains as set forth in SEQ ID NOs: 1 & 2, respectively) was flowed over the surface with captured antigen (TIM-3 fusion). Capture and analyte binding were performed in HBS-EP+ buffer. The captured antigen and antibodies were removed between each cycle to ensure a fresh binding surface for each concentration of […]. The resulting sensorgrams were fitted globally using a 1:1 binding model to calculate on- and off-rates (kassoc and kdissoc, respectively), and dissociation constants as a measure of overall affinity (KD).

[3] = biological target: T3, native cynomolgus monkey TIM-3 stably transfected in CHO-K1 cells (cynomolgus monkey, UniProt A0A2K5U3G7 22-294); test: flow cytometry on cynomolgus monkey TIM-3 expressing CHO-K1 cells, PE anti-human IgG4 detection
T3 construct: whole, on cells; also called cell-surface cynomolgus monkey TIM-3; cynomolgus monkey TIM-3 expressing CHO-K1 cells
T3 sequence: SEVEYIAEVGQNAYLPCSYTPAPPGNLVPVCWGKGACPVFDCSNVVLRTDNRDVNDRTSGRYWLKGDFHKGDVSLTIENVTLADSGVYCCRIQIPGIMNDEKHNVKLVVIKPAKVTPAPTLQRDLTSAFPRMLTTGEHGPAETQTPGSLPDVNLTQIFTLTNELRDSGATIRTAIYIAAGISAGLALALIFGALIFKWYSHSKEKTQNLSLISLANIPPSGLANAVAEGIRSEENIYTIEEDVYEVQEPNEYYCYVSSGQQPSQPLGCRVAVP
Protocol: as §1

[4] = biological target: T4, soluble cynomolgus monkey TIM-3 fusion (cynomolgus monkey, UniProt A0A2K5U3G7 22-195); test: SPR Biacore T200; captured TIM-3 fusion, antibody flowed over; 1:1 model
T4 construct: The SPR method describes only the human mIgG2a Fc fusion; not shown: mIgG2a Fc i
T4 sequence: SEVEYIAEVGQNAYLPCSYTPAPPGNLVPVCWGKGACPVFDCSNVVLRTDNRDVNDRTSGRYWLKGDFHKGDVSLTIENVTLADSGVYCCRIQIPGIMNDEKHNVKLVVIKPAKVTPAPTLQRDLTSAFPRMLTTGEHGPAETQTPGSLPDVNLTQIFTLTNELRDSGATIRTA

EC50 [1]: 0.17 nM
Kd [2]: 0.007 nM
koff [2]: 0.00011 s⁻¹
kon [2]: 1.5e+07 M⁻¹ s⁻¹
EC50 [3]: 0.27 nM
Kd [4]: 0.017 nM
koff [4]: 0.00019 s⁻¹
kon [4]: 1.1e+07 M⁻¹ s⁻¹
B1: exemplary anti-TIM-3 antibody (having heavy and light chains as set forth in SEQ ID NOs: 1 & 2, respectively) (antibody, human IgG4 S228P, kappa, V domains shown)
VH: EVQLLESGGGLVQPGGSLRLSCAAASGFTFSSYDMSWVRQAPGKGLDWVSTISGGGTYTYYQDSVKGRFTISRDNSKNTLYLQMNSLRAEDTAVYYCASMDYWGQGTTVTVSS
VL: DIQMTQSPSSLSASVGDRVTITCRASQSIRRYLNWYHQKPGKAPKLLIYGASTLQSGVPSRFSGSGSGTDFTLTISSLQPEDFAVYYCQQSHSAPLTFGGGTKVEIKR
modifications: N-glycosylation at asparagine residue 290 of SEQ ID NO:1
notes: Humanized IgG4 (human IGHG4*01) / kappa (IGKC*01); also called exemplary humanized monoclonal anti-TIM-3 antibody; anti-TIM-3 mAb
